Data from patent US6339139.

Experiments:
Assay in all cases: cell-based or functional assay
[1] = molecular target: insulin growth factor II receptor (human) (UniProt P11717)
[2] = molecular target: insulin growth factor I receptor (human) (UniProt P08069)
[3] = molecular target: epidermal growth factor receptor (human) (UniProt P00533)

Sequence of UniProt P11717 (P11717 41-2491): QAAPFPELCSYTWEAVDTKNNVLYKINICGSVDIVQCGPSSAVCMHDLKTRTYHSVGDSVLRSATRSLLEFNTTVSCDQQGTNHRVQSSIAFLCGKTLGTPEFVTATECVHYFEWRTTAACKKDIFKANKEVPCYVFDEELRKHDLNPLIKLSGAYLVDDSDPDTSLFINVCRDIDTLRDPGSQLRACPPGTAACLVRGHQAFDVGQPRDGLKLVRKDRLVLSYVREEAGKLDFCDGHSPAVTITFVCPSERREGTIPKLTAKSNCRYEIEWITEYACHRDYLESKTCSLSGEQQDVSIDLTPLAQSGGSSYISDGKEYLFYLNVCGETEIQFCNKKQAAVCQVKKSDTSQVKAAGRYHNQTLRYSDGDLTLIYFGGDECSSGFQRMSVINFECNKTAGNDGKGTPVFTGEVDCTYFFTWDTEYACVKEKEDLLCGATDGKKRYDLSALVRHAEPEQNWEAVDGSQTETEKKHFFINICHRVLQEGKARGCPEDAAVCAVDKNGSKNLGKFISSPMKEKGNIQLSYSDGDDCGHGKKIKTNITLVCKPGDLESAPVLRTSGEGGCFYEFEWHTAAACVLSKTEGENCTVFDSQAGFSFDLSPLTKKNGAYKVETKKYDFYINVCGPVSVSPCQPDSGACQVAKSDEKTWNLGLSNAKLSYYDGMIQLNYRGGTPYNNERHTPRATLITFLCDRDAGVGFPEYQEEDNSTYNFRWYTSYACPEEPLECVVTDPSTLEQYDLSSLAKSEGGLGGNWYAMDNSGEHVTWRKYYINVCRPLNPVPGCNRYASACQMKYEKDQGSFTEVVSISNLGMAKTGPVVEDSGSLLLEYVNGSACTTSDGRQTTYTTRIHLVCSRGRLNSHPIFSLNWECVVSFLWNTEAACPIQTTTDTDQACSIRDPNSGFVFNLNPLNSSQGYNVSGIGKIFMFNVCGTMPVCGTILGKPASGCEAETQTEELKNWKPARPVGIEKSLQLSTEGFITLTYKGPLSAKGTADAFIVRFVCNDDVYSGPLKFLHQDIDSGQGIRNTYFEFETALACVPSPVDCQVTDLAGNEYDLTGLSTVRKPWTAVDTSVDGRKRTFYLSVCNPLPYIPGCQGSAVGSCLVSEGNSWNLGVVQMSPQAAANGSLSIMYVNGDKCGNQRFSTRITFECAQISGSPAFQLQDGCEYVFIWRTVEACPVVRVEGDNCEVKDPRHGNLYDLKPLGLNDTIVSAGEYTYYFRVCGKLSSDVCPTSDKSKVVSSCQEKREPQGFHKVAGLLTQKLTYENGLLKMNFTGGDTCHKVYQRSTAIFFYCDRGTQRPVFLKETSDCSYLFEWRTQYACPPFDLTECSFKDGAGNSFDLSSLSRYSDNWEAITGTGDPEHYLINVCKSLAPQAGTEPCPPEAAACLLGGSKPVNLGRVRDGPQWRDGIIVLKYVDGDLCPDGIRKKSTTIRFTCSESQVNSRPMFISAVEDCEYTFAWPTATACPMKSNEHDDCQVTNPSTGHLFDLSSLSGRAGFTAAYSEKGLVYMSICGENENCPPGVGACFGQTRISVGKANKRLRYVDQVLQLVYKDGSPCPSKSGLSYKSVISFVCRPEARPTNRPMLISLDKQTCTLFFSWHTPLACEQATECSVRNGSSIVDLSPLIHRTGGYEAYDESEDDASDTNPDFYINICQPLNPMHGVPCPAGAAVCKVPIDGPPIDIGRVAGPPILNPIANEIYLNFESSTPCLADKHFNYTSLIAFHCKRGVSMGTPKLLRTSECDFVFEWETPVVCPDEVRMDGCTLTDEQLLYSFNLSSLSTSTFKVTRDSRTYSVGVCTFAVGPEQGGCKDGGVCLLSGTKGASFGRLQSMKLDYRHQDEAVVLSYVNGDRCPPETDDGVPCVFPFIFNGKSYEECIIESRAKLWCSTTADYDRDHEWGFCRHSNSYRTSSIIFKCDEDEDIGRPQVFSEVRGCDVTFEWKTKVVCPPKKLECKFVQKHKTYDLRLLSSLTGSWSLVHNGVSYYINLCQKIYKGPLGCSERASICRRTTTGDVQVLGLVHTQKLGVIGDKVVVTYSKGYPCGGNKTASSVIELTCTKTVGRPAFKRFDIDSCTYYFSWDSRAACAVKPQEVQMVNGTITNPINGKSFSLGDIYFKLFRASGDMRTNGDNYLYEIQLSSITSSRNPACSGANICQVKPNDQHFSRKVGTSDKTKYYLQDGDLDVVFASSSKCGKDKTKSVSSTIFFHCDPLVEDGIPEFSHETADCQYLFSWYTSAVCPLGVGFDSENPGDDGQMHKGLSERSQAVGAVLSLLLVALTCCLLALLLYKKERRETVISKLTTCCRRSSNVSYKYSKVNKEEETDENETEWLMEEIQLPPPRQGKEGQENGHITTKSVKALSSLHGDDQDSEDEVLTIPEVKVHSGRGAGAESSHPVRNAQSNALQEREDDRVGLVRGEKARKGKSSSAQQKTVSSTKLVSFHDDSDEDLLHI
Sequence of UniProt P08069 (P08069 31-1367): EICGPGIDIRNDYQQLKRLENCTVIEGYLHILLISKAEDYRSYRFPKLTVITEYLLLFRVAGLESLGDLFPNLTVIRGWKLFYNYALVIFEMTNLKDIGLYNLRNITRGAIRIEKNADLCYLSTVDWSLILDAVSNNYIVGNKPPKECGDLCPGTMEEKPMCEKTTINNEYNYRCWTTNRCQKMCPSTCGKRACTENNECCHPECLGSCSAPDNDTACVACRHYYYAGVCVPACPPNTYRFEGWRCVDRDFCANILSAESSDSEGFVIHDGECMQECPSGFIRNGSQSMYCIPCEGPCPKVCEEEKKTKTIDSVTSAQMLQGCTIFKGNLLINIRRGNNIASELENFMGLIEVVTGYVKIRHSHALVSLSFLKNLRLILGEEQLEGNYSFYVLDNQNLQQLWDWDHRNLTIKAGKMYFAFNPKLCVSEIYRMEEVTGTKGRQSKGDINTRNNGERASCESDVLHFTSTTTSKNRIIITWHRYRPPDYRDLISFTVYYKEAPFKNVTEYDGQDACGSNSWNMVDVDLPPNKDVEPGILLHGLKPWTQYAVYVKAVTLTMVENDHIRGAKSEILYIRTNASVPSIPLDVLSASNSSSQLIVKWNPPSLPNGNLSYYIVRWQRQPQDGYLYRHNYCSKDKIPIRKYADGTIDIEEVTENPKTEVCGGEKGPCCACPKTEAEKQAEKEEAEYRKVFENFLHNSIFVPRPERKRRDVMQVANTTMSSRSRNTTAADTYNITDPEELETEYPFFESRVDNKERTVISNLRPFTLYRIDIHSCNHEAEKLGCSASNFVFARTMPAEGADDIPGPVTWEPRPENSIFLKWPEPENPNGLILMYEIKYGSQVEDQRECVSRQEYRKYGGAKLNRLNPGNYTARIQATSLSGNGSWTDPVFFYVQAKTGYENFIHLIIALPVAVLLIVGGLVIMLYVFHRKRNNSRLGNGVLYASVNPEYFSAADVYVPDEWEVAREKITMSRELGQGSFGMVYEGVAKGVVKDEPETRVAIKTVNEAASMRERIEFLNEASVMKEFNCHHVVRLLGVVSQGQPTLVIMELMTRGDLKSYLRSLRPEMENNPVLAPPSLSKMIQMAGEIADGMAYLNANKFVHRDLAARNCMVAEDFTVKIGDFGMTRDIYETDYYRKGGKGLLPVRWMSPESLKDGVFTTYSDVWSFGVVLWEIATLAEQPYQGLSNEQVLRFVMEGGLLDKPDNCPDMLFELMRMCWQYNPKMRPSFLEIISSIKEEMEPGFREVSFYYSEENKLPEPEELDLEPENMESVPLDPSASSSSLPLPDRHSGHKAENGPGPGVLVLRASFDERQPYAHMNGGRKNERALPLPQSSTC

Row | Substance | Percentage of β-gal positive cells, SMMC-7721 [1] [%] | Percentage of β-gal positive cells, SMMC-7721 [2] [%] | Percentage of β-gal (+) cells, 3AO [3] [%] | Percentage of β-gal (+) cells, BEL-7402 [3] [%] | Percentage of β-gal (+) cells, Bcap-37 [3] [%] | Percentage of β-gal (+) cells, SMMC-7721 [3] [%] | Percentage of β-gal (+) cells, SPC-A1 [3] [%] | Percentage of β-gal (+) cells, U87 [3] [%]
1 | E5-polylysine/HA20-polylysine/pSV β-gal DNA | 60 | 60 | – | – | – | – | – | –
2 | E5-polylysine/pSV β-gal DNA | 10 | 10 | – | – | – | – | – | –
3 | GE7-polylysine/HA20-polylysine/pSV-β-gal DNA | – | – | > 65 | > 90 | > 80 | > 80 | > 80 | > 30
